Results on five molecules are retold here after patent US20060204498A1 (MERCK SERONO, published 2006).

Where a chain is given by its changes, count along the chain named.

The target in experiment [1] is T1, human CXCR3 (human, UniProt P49682 1-368).
T1 construct: whole, on cells; in FACS and chemotaxis on whole transfected HEK or L1.2 cells; also called GPR9
T1 sequence (looked up): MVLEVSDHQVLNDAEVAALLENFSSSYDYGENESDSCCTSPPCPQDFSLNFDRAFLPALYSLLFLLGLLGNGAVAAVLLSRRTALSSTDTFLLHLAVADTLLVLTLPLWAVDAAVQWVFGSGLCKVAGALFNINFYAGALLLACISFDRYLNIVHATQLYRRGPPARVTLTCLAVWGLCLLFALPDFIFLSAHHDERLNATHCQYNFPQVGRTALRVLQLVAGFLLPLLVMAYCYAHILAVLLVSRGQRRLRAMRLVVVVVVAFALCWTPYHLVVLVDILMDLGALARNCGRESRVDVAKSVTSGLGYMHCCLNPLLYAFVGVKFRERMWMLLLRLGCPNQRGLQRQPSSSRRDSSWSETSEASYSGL
The experiment in a line: equilibrium competition receptor binding, SPA, [125I]-CXCL11 tracer, membranes of CXCR3-expressing HEK cells. Here is the method:
The assays were carried out on membranes from HEK cells stably expressing CXCR3 using a Scintillation Proximity Assay (SPA), with [¹²⁵I]-CXCL11 as tracer. Radiolabelled CXCL11 (recombinant human I-TAC; Peprotech) was generated and tested according to the [¹²⁵I] supplier (Amersham; specific activity of […]), also to check for CXCR3-expressing HEK and L1.2 clones positively stained during FACS analysis.
Competitors were prepared by serial dilutions (range from 10⁻⁶ to 10⁻¹² M) of the unlabelled CXCL11, or one of its mutant, in the binding buffer (50 mM HEPES pH 7.2, 1 mM CaCl₂, 5 mM MgCl₂, 0.15 M NaCl and 0.5% Bovine Serum Albumin). Wheat germ SPA beads (Amersham) were solubilised in PBS to 50 mg/ml, and diluted in the binding buffer to a 10 mg/ml, and the final concentration in the assay was 0.25 mg/well. Cell membranes expressing CXCR3 were stored at −80° C. and diluted in the binding buffer to 20 μg/ml. Equal volumes of membrane and beads stocks were mixed before performing the assay to reduce background. The final membrane concentration was 5 μg/well and that of [¹²⁵I]-CXCL11 was 0.05 nM. The plates were incubated at room temperature with agitation for 4 hours. Radioactivity was counted (1 minute/well) in a beta counter. Data from triplicate samples were analysed using Prism® software (GraphPad).
Finally, an equilibrium competition receptor-binding assay was performed to compare the properties of the muteins on the binding of the specific receptor CXCR3 (FIG. 3). Samples containing a constant amount of radiolabelled, commercial CXCL11 were mixed with serial dilutions of CXCL11-WT, or of one of the muteins, and then incubated with membranes prepared from CXCR3-expressing HEK cells. […] Therefore, the affinity for the receptor is substantially retained in heparin-binding defective CXCL11-WT carboxyl-terminal mutants, whilst the mutations in amino-terminus affect specifically receptor binding, a feature which appears as clearly distinct.

Experiment [2] addresses T1, human CXCR3. The experiment in a line: radioligand equilibrium binding on CXCR3-transfected HEK and L1.2 clones.

B1: mature human CXCL11 (CXCL11-WT) (ligand)
chain: FPMFKRGRCLCIGPGVKAVKVADIEKASIMYPSNNCDKIEVIITLKENKGQRCLNPKSKQARLIIKKVERKNF
notes: 73 residues with no additional residues; also called hCXCL11; I-TAC
B1: in the experiment with human CXCR3 [1], the binding result is “binds”.

B2: [125I]-CXCL11 (radiolabelled recombinant human I-TAC; Peprotech) (ligand, UniProt O14625 22-94, looked up)
chain: B1 chain
modifications: [125I] label, site not stated
notes: Commercial protein; also called Radiolabelled CXCL11; radiolabelled, commercial CXCL11
Take B2: the binding result with human CXCR3 [2] is “binds”.

B3: CXCL11-3B3 (ligand)
chain: B1 chain with K57A, K59A, R62A
notes: Mutein of mature human CXCL11; E. coli, leader cleaved with caspase 8; also called CXCLII-3B3
For the molecule B3, the “reduction in the affinity for CXCR3 against CXCL11-WT” value (shortened to “reduction in the affinity for CXCR3”) in the experiment with human CXCR3 [1] was ≤ 1 order of magnitude.

B4: CXCL11-2B3 (ligand)
chain: B1 chain with K46A, K49A, R52A
notes: Mutein of mature human CXCL11; E. coli, leader cleaved with caspase 8; also called CXCLII-2B3
For B4, in the experiment with human CXCR3 [1], the “reduction in the affinity for CXCR3” value is ≤ 1 order of magnitude.

B5: CXCL11-4B4 (ligand)
chain: B1 chain with K66A, K67A, R70A, K71A
notes: Mutein of mature human CXCL11; E. coli, leader cleaved with caspase 8; also called CXCLII-4B4
For B5, the “reduction in the affinity for CXCR3” value with human CXCR3 [1] is ≤ 1 order of magnitude.
